Measurements: patent US20050288217A1 (UNIVERSITY OF NORTH CAROLINA AT CHAPEL HILL, published 2005)

T1: β3 integrin mutant in which the identical region of the β1 integrin was substituted for the 8 amino acid … (UniProt P05106 27-788)
T1 construct: whole, on cells; also called mutant protein; β3 mutant
T1 sequence (looked up): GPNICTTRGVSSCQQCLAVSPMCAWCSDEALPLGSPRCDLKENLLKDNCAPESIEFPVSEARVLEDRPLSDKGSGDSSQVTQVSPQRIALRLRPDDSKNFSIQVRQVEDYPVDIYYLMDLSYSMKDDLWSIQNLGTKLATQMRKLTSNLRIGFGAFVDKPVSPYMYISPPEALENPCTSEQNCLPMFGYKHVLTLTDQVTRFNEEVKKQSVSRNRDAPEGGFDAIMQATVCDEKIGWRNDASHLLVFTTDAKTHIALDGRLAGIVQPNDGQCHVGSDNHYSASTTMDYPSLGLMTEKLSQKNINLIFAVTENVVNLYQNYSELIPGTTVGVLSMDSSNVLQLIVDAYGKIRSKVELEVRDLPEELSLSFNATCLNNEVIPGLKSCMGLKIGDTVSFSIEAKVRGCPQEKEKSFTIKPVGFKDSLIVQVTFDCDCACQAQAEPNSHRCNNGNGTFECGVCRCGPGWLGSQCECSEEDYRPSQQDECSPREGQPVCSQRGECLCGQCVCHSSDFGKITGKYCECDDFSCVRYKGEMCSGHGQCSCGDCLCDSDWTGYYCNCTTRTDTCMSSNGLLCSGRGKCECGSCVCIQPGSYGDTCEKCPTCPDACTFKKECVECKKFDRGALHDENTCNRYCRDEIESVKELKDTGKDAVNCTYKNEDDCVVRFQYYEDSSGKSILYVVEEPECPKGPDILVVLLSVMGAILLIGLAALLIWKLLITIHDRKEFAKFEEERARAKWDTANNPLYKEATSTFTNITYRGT

B1: heparin binding epidermal growth factor (ligand, UniProt Q99075 63-148, looked up)
chain: DLQEADLDLLRVTLSSKPQALATPNKEEHGKRKKKGKGLGKKRDPCLRKYKDFCIHGECKYVKELRAPSCICHPGYHGERCHGLSL
B2: osteopontin (ligand)
chain: not shown
B3: vitronectin (ligand, UniProt P04004 20-478, looked up)
chain: DQESCKGRCTEGFNVDKKCQCDELCSYYQSCCTDYTAECKPQVTRGDVFTMPEDEYTVYDDGEEKNNATVHEQVGGPSLTSDLQAQSKGNPEQTPVLKPEEEAPAPEVGASKPEGIDSRPETLHPGRPQPPAEEELCSGKPFDAFTDLKNGSLFAFRGQYCYELDEKAVRPGYPKLIRDVWGIEGPIDAAFTRINCQGKTYLFKGSQYWRFEDGVLDPDYPRNISDGFDGIPDNVDAALALPAHSYSGRERVYFFKGKQYWEYQFQHQPSQEECEGSSLSAVFEHFAMMQRDSWEDIFELLFWGRTSAGTRQPQFISRDWHGVPGQVDAAMAGRIYISGMAPRPSLAKKQRFRHRNRKGYRSQRGHSRGRNQNSRRPSRATWLSLFSSEESNLGANNYDDYRMDWLVPATCEPIQSVFFFSGDKYYRVNLRTRRVDTVDPPYPRSIAQYWLGCPAPGHL
B4: connective tissue growth factor (ligand, UniProt P29279 27-349, looked up)
chain: QNCSGPCRCPDEPAPRCPAGVSLVLDGCGCCRVCAKQLGELCTERDPCDPHKGLFCHFGSPANRKIGVCTAKDGAPCIFGGTVYRSGESFQSSCKYQCTCLDGAVGCMPLCSMDVRLPSPDCPFPRRVKLPGKCCEEWVCDEPKDQTVVGPALAAYRLEDTFGPDPTMIRANCLVQTTEWSACSKTCGMGISTRVTNDNASCRLEKQSRLCMVRPCEADLEENIKKGKKCIRTPKISKPIKFELSGCTSMKTYRAKFCGVCTDGRCCTPHRTTTLPVEFKCPDGEVMKKNMMFIKTCACHYNCPGDNDIFESLYYRKMYGDMA

molecular target: T1, β3 integrin mutant in which the …; experiment: binding assay on CHO cells expressing the mutant β3

Binding result, no binding:
B1
B2
B3
B4
